Test [1] has as its target MrNVPd double-mutant K327A/D329A (Macrobrachium rosenbergii nodavirus (MrNV)). Kind of test: SEC; P-domains without the SUMO-tag; column and buffer not stated.
In test [2] the target is MrNVPd (246-371) (Macrobrachium rosenbergii nodavirus (MrNV)). The description is as above.
The target in test [3] is MrNVPd double-mutant Y293A/D295A (Macrobrachium rosenbergii nodavirus (MrNV)). The test is described as above.
In test [4] the target is PvNVPd (250-368) (Penaeus vannamei nodavirus (PvNV)). The test is described as above.
The target of test [5] is PvNV capsid protein (1-368) (Penaeus vannamei nodavirus (PvNV)). Kind of test: cryo-EM structure; T = 1 PvNV-LP particles (~22-24 nm) picked from the same sample, icosahedral symmetry, 3.7 Å.
Test [6] shares this target. In words: cryo-EM structure; T = 3 PvNV-LP particles (~29-35 nm) picked from the assembled sample, 6 mg/mL, icosahedral symmetry, 3.5 Å.

The source of these data is PMC6382870.

Consider “MrNVPd double-mutant K327A/D329A (domain or fragment)”, for which, in test [1], the stoichiometry N – broadly, a count of units in the complex or per binding partner – is 2.

In test [2], MrNVPd (246-371) (domain or fragment) showed a stoichiometry N of 2.

“MrNVPd double-mutant Y293A/D295A (domain or fragment)” returned a stoichiometry N in test [3] of 2.

For PvNVPd (250-368) (domain or fragment), the stoichiometry N in test [4] was determined as 2.

In the case of “PvNV capsid protein (1-368) (natural protein)”, the stoichiometry N stood at 60 in test [5] and 180 copies in test [6].
